Like-named read-outs stand apart in the source and are kept apart here.
What was measured:
[1] = tested on: S. aureus pre-tRNA^phe; experiment: RNase P kinetics (Michaelis Menten) with cloned pre-tRNAphe as substrate; format: biochemical; conditions: 50 mM Tris pH8.0, 1 M NH4Cl, 200 mM MgCl2, 5% PEG
Description: A cloned pre-tRNA^phe was used as a substrate for kinetic characterizations for both the holoenzyme and RNA only reactions.
RNase P RNA-only kinetics in the following buffer: 50 mM Tris, pH8.0, 1 M NH4Cl, 200 mM MgCl2, and 5% PEG. […] In both experiments, a cloned pre-tRNA^phe was used as substrate.

[2] = tested on: p6AT-1; experiment: Cleavage of minimal substrate p6AT-1 by RNase P RNA or holoenzyme (gel, autoradiography); format: biochemical
Description: The chemically synthesized 42nt RNA molecule p6AT-l was 5′ end-labeled with high specific activity [γ-^32p] ATP ([…]) using bacteriophage T4 polynucleotide kinase. The labeling was performed in a 10 μl reaction at 37° C. for 30 min. The enzyme was heat-inactivated at 95° C. for 2 min. To remove salts, unincorporated nucleotides and the enzyme, p6AT-1 was gel purified from a 20% polyacrylamide TBE gel with 7M urea. The RNA was extracted from the gel slice and precipitated with 300 mM NaOAc and 2.5 volumes 100% ethanol. After a spin at 14,000 g and 4° C. the RNA pellet was washed twice with chilled 70% ethanol. The pellet was air dried and subsequently resuspended in 50 μl water. 0.5 μl were spotted onto a filter paper disk and counted in a scintillation counter (Cherenkov analysis).
(§1) E. coli M1 RNA is able to cleave ptRNA^met or the minimal substrate p6AT-1 in 100 mM NH4Cl, 100 mM TrisCl pH 7.5, 100 mM MgCl2. The conditions for cleavage of either substrate by S. aureus SP RNA were unknown and clearly deviated from those optimized for E. coli. A large number of different buffer conditions were investigated in order to determine optimal buffer conditions for either substrate cleavage by the S. aureus ribozyme.
(§2) Cleavage reactions (20 μl) were all performed at 37° C. for 30 min with 100 nM SP RNA and an additional 200 nM SP protein in the holoenzyme reactions. Substrates (ptRNA^met or p6AT-1) were added in trace amounts (single-turnover reactions). Cleavage was monitored by size resolution of the intact precursor and the cleaved leader sequence by denaturing gel elctrophoresis and autoradiography or visualization on the phosphorimager (Molecular Dynamics Storm 860).

[3] = tested on: E. coli ptRNA^met; experiment: Cleavage of ptRNAmet by RNase P RNA or holoenzyme (gel, autoradiography); format: biochemical; conditions: 100 mM TrisCl pH8, 100 mM MgCl2, 5% PEG
Description: E. coli ptRNA^met, a substrate for RNase P, was transcribed in vitro by T7 RNA polymerase (Epicenter) in the presence of [α-32P] UTP to internally label the RNA. The DNA template pGem3Z-ptRNA was linearized with BstNI restriction endonuclease to allow run-off transcription. The transcription was performed in a 20 μl reaction at 37° C. for 60min. To remove unincorporated nucleotides the 93 nt RNA (sequence shown below) was cleaned under non-denaturing conditions using a CLONTECH Chroma-Spin 10 column. To calculate the specific activity of the RNA probe, 1 μl samples were removed before and after cleaning, mixed with 5 ml scintillation cocktail and counted in a scintillation counter. ptRNAmet in pGem-3Z, sequence of the transcript (93mer) 5′→3′ [SEQ ID NO: 12]: GGGCGAAUUCGCCUCGGCUACGUAGCUCAGUUGGUUAGAGCACAUCACUCAUAAUGAUGGGGUCACAGGUUCGAAUCCCGUCGUAGCCACCAG
as §1, §2

[4] = target: S. aureus RNase P RNA; experiment: Filter binding / gel-shift assay of RNase P protein to RNase P RNA
Description: The RNase P RNA/protein interactions were investigated by gel mobility shift and filter binding experiments.
Binding isotherm of RNase P RNA obtained by filter binding assay was asswssed. The 3′-end labeled RNA was mixed with the protein in the binding buffer containing 20 mM K-Hepes, pH8.0, 0.01% NP-40, 400 mM NH4OAc, 10 mM MgCl2, and 5% glycererol. The Kd value was generated by fitting the data with Grafit 4 one-site ligand binding equation: % binding=plateau/(1+Kd/[S. aureus protein]).

Row | Molecule | pre-tRNAphe processing, RNA-only [1] | p6AT-1 cleavage ([2]; 10 mM MgCl2, 2M KCl, 100 mM TrisCl pH8, 5% PEG) | p6AT-1 cleavage ([2]; 1M KCl or NH4Cl, 100 mM TrisCl pH7.5, 100 mM MgCl2) | p6AT-1 cleavage, maximal level ([2]; 1.5M KCl, 100 mM TrisCl pH8, 100 mM MgCl2, 5% PEG, 37° C. 30 min, 100 nM SP RNA) [%] | p6AT-1 cleavage ([2]; KCl below 400 mM, 100 mM TrisCl pH8, 100 mM MgCl2, 5% PEG) | ptRNAmet substrate processed ([3]; 150 mM KCl) | ptRNAmet substrate processed ([3]; 800 mM KCl) [%] | ptRNA cleaved ([3]; KCl 1M or above) [%] | Kd ([4]; 20 mM K-Hepes pH8.0, 0.01% NP-40, 400 mM NH4OAc, 10 mM MgCl2, 5% glycererol, 3′-end labeled RNA, read-out: Kd, filter binding isotherm) [nM] | Kd ([4]; filter binding and gel-shift assays, read-out: binding constant of the complex) [nM]
1 | SP RNA: S. aureus RNase P catalytic RNA component, transcribed in vitro from plasmid pSPR with T7 RNA polymerase; gene SEQ ID NO:3 (nucleic acid, listed as Staphylococcus aureus, RNA transcript of gene) DNA: GTTCTGATATTTTGGGTAATCGCTATATTATATAGAGGAAAGTCCATGCTCACACAGTCTGAGATGATTGTAGTGTTCGTGCTTGATGAAACAATAAATCAAGGCATTAATTTGACGGCAATGAAATATCCTAAGTCTTTCGATATGGATAGAGTAATTTGAAAGTGCCACAGTGACGTAGCTTTTATAGAAATATAAAAGGTGGAACGCGGTAAACCCCTCGAGTGAGCAATCCAAATTTGGTAGGAGCACTTGTTTAACGGAATTCAACGTATAAACGAGACACACTTCGCGAAATGAAGTGGTGTACGACAGATGGTTATCACCTGAGTACCAGTGTGACTAGTGCACGTGATGAGTACGATGGAACAGAACATGGCTTATAGAAATATCACTACTA | efficiently processed | No cleavage | hardly any cleavage product detectable | 27 | No cleavage | more than 50% | 82 | 85 | – | –
2 | S. aureus RNase P protein: 117 amino acid translation product of the S. aureus spp gene, SEQ ID NO:2, expressed as MBP fusion and cleaved (protein, listed as Staphylococcus aureus) MLLEKVYRIKKNADFGRIYKKGHSVANRQFVVYTCNNKEIDHFRLGISVSKKLGNAVLRNKIKRAIRENFKVHKSHILAKDIIVIARQPAKDMTTLQIQNSLEHVLKIAKVFNKKIK | – | – | – | – | – | – | – | – | 8 ± 1 | 20

From patent US6649744B1, “Rnase P polypeptides, polynucleotides, and methods using their mechanisms of action” (SmithKline Beecham Corporation, priority 1999, dated 2003)
